According to PMC3904923:

Assays:
[1] = biological target: Kv7.2 helix B (hB residues S450–S590) (human); assay: other fluorescence titration; competition: 12.5 nM D-CaM mixed with helix A (46.4 nM) or helix B (20.1 nM), isolated lobe added incrementally; no Ca2+; one site Hill fit, Kd derived assuming 1:1 binding
[2] = biological target: Kv7.2 helix B (hB residues S450–S590) (human); assay: other fluorescence titration; competition: 12.5 nM D-CaM mixed with helix A (65.6 nM) or helix B (42.6 nM), isolated lobe added incrementally; with Ca2+; one site Hill fit, Kd derived assuming 1:1 binding
[3] = biological target: dansylated calmodulin (rat) (UniProt P0DP30); assay: other fluorescence titration; 12.5 nM D-CaM, ligand added incrementally, enhancement of dansyl emission; 25 mM Tris-HCl, 120 mM KCl, 5 mM NaCl, 2 mM MgCl2, 10 mM EGTA, pH 7.4; no free Ca2+; apparent affinity (EC50 of a Hill fit)
[4] = biological target: dansylated calmodulin (rat) (UniProt P0DP30); assay: other fluorescence titration; 12.5 nM D-CaM, ligand added incrementally, enhancement of dansyl emission; D-CaM binding buffer with 3.9 µM free Ca2+ (9.63 mM Ca2+, 2 mM Mg2+, 10 mM EGTA, pH 7.4); apparent affinity (EC50 of a Hill fit)

Row | IC50 [1] [nM] | Kd [1] [nM] | IC50 [2] [nM] | Kd [2] [nM] | EC50 [3] [nM] | EC50 [4] [nM] | Substance
1 | 238 | 231 | 244 | 229 |  |  | CaM C-lobe (residues 79–148) (from UniProt P0DP23 80-149) (domain or fragment)
2 | 130 | 119 | 415 | 414 |  |  | CaM N-lobe (residues 1–78) (from UniProt P0DP23 2-79) (domain or fragment)
3 |  |  |  |  | 11 | 27.1 | Kv7.2 CaM binding domain (residues 310–548), Q2AB WT (domain or fragment)
4 |  |  |  |  | 20.1 | 42.6 | Kv7.2 helix B (hB residues S450–S590) (domain or fragment)
